According to paper PMC6768852, “The structural basis for RNA selectivity by the IMP family of RNA-binding proteins”:

How the values were obtained:
[1] = biological target: T1, ZBP1 KH34 (UniProt Q9NZI8 405-553); experiment: EMSA; EMSA: 100 pM RNA, 10 mM Tris, 100 mM NaCl, 0.1 mM EDTA, 0.01 mg/mL tRNA, 50 ug/mL heparin, 0.01% IGEPAL CA630, room temperature, 3 h; pH not stated; conditions: protein: recombinant; tags: MBP
[2] = biological target: T2, IMP2 KH34 (UniProt Q9Y6M1 425-581); experiment: as above; conditions: protein: recombinant; tags: MBP
[3] = biological target: T3, IMP2 KH34 (NMR) (UniProt Q9Y6M1 425-581); experiment: NMR titration; bound by KH3, fast exchange; EMSA: 100 pM RNA, 10 mM Tris, 100 mM NaCl, 0.1 mM EDTA, 0.01 mg/mL tRNA, 50 ug/mL heparin, 0.01% IGEPAL CA630, room temperature, 3 h; pH not stated; conditions: protein: recombinant; tags: 6xHis
[4] = biological target: T3, IMP2 KH34 (NMR); experiment: NMR titration; bound by KH4, intermediate exchange; EMSA: 100 pM RNA, 10 mM Tris, 100 mM NaCl, 0.1 mM EDTA, 0.01 mg/mL tRNA, 50 ug/mL heparin, 0.01% IGEPAL CA630, room temperature, 3 h; pH not stated; conditions: protein: recombinant; tags: 6xHis
[5] = biological target: T2, IMP2 KH34; experiment: EMSA; tenfold higher affinity than WT zipcode; EMSA: 100 pM RNA, 10 mM Tris, 100 mM NaCl, 0.1 mM EDTA, 0.01 mg/mL tRNA, 50 ug/mL heparin, 0.01% IGEPAL CA630, room temperature, 3 h; pH not stated; conditions: protein: recombinant; tags: MBP
[6] = biological target: T1, ZBP1 KH34; experiment: EMSA; text: tight to IMP2 and not to ZBP1; EMSA: 100 pM RNA, 10 mM Tris, 100 mM NaCl, 0.1 mM EDTA, 0.01 mg/mL tRNA, 50 ug/mL heparin, 0.01% IGEPAL CA630, room temperature, 3 h; pH not stated; conditions: protein: recombinant; tags: MBP

T1 sequence (Q9NZI8 405-553): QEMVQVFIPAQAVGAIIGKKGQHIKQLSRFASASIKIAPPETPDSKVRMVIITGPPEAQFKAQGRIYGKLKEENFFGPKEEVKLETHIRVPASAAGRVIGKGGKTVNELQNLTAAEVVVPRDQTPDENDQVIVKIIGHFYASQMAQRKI
T2 sequence (Q9Y6M1 425-581): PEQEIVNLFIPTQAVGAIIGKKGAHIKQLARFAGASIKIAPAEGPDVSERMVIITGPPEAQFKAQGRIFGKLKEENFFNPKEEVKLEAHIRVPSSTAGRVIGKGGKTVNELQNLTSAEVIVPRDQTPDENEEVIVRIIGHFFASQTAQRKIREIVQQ
T3 sequence (Q9Y6M1 425-581): as above

Work on ACCGGACUGUUACCAACACCCACACCCC (ssRNA) [C28 beta-actin zipcode WT] yielded a Kd [1] of 0.015 ± 0.0049 µM and a Kd [2] of 0.161 ± 0.025 µM.

CCCUCACC (ssRNA) [CA element RNA (5' RE)]: binds [3].

UUUGGAAC (ssRNA) [GG element RNA (3' RE)]: binds [4].

ACCGGACUGUUACCAACACCCUCACCCC (ssRNA) [C28 A22U]: binds [5].

B1: SELEX RNA #1 WT (ssRNA)
RNA: GGGCAGAGCGACGCAGUUUAGCGGCCUCAGCGAACCCUUUGGAACACUUCUCGAUAGUUGCGUGCGUCCAAA
B1: no binding [6]; binds [2].

B2: SELEX RNA #2 (ssRNA)
RNA: GGGCAGAGCGACGCAGUUUAGCCUGUGUAUACAGCGAACCCUUAGGAUGAUCGAUAGUUGCGUGCGUCGAAA
B2: no binding [6]; binds [2].
